Data from patent US20080299097A1.

Tests used:
CX3CR1 (human) = CX3CR1 (human) (UniProt P49238); assay: cell-based or functional assay
CXCR4 (human) = CXCR4 (human) (UniProt P61073); assay: cell-based or functional assay
Sequence of UniProt P61073 (P61073 whole entry): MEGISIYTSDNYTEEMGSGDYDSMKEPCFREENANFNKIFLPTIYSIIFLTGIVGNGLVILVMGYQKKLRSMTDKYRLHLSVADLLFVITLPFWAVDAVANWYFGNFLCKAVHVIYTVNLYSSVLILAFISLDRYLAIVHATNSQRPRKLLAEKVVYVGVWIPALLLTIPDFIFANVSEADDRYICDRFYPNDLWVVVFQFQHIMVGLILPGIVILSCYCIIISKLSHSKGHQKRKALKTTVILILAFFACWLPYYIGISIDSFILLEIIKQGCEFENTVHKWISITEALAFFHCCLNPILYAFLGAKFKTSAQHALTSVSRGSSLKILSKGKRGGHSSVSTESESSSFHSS

Sequence of UniProt P49238 (P49238 whole entry): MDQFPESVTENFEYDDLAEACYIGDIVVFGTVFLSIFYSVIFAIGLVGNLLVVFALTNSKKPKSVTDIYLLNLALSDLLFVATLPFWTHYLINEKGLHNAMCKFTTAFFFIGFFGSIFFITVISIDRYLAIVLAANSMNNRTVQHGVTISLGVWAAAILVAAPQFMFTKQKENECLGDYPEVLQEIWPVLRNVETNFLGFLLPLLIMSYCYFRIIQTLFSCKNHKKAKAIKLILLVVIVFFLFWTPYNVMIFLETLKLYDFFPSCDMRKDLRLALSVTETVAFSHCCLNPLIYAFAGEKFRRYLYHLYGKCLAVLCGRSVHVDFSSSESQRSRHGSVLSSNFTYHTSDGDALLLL

Row | decrease of neurosphere-induced migration of RS-MSCs and mMSCs (CX3CR1 (human)) [%] | decrease of neurosphere-induced migration of RS-MSCs and mMSCs (CXCR4 (human)) [%] | Substance
1 | 40 | – | anti-human CX3CR1 (clone 2A9-1; MBL) (antibody)
2 | – | 40 | anti-human CXCR4 (clone 12G5; R&D Systems) (antibody)
